Source: paper PMC10952621, “Long QT syndrome‐associated calmodulin variants disrupt the activity of the slowly activating delayed rectifier potassium channel” (The Journal of Physiology, 2023)

Target: human wild-type calmodulin (CaM-WT) (human, UniProt P0DP23 2-149)
Experiment: ITC; Kv7.1-HA peptide titrated into CaM (~50 uM) in the cell; 50 mM Na-HEPES, 100 mM KCl, 2 mM MgCl2, pH 7.5, 5 mM CaCl2; 25 °C; one-site binding model
Conditions: both partners purified

- Kd: ~96 µM
B1: Kv7.1-HA(370-389) peptide, helix A of the KCNQ1 C-terminus (peptide)
peptide: AAASLIQTAWRCYAAENPDS
notes: source: synthetic peptide (GenicBio, HPLC purified, >95% purity)
